Assay results from US20110033448.

Molecular target: T1, hCAP18 (propeptide of LL-37), P49913
T1 chain: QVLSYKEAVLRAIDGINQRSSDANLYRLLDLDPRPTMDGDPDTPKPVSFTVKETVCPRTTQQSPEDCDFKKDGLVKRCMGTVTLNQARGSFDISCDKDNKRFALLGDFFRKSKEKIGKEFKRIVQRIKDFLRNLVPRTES

B1: Proteinase 3 (protein)
chain: IVGGHEAQPHSRPYMASLQMRGNPGSHFCGGTLIHPSFVLTAAHCLRDIPQRLVNVVLGAHNVRTQEPTQQHFSVAQVFLNNYDAENKLNDVLLIQLSSPANLSASVATVQLPQQDQPVPHGTQCLAMGWGRVGAHDPPAQVLQELNVTVVTFFCRPHNICTFVPRRKAGICFGDSGGPLICDGIIQGIDSFVIWGCATRLFPDFFTRVALYVDWIRSTLR
- Western blot of cleavage of the 4 kD LL-37 peptide from hCAP18 in supernatants of activated neutrophils: the cleavage of the 4 kD LL-37 peptide can be blocked by pretreatment of neutrophils with the proteinase 3 inhibitors
